For test [1], the target named is superfolder GFP [GFP: P42212]. Put plainly: MST; sfGFP as the fluorescent antigen, photobody added in a dilution series; before and after photodeprotection (365 nm).
Test [2] concerns the target superfolder GFP [GFP: P42212]. Put plainly: not stated; photobody 10, caged or photodeprotected, with purified sfGFP.

Here are results for three substances from article PMC7004160.

Bounds are passed on as bounds.

As for “anti-GFP NPY-photobody (construct 5), GFP-enhancer nanobody with Y37NPY, caged (VHH)”, the Kd (usually the concentration at which binding is half-saturated) in test [1] turned out to be 460 nM.

For the substance “anti-GFP ONBY-photobody (construct 4), GFP-enhancer nanobody with Y37ONBY, caged (VHH)”, the Kd in test [1] is more than 10000 nM. With “anti-GFP minimizer Y113ONBY-photobody (construct 10), caged (VHH)”, the Kd in test [2] was 2280 nM.
